For series [1], the target named is N-terminal portion of the readthrough domain of turnip yellows virus (TuYV NRTD; residues 224-459) (turnip yellows virus). Kind of series: SEC-MALS; loaded at 4 mg/mL on Superdex 200 10/300 Increase; 20 mM HEPES pH 7.5, 150 mM KCl, 1 mM DTT; 0.5 ml/min.
Series [2] deals with the molecule itself. Described as above.

What is called stoichiometry N is a count of units in the complex or per binding partner. Molecule “N-terminal portion of the readthrough domain of turnip yellows virus (TuYV NRTD; residues 224-459) (from UniProt P09516 224-459) (domain or fragment)” had a stoichiometry N in series [1] of 2.

B1: N-terminal portion of the potato leafroll virus readthrough domain (PLRV NRTD; residues 230-458), native (domain or fragment)
chain: HERFIAYVGIPMLTIQARENDDQIILGSLGSQRMKYIEDENQNYTKFSSEYYSQSSMQAVPMYYFNVPKGQWSVDISCEGYQPTSSTSDPNRGRSDGMIAYSNADSDYWNVGEADGVKISKLRNDNTYRQGHPELEINSCHFREGQLLERDATISFHVEAPTDGRFFLVGPAIQKTAKYNYTISYGDWTDRDMELGLITVVLDEHLEGTGSANRVRRPPREGHTYMASP
notes: Readthrough protein (RTP, CP-RTD fusion) of potato leafroll virus, N-terminal portion of the readthrough domain, residues 230-458 of the complete RTP fusion; 6xHis-NusA removed with HRV3C protease; also called WT PLRV ^NRTD; source: E. coli BL21(DE3), purified (nickel column, HiTrap Q, SEC); not shown: 6xHis, N-terminal, cleaved; NusA, N-terminal, cleaved
B1: in series [2], the “stoichiometry N” value is 2.
